This is an account of results in publication PMC9363500 (Communications Biology, 2022).

Broadly, the stoichiometry N is the number of molecules, sites or subunits per partner or assembly. Usually Kd stands for a measure of binding affinity in units of concentration. A lower Kd goes with higher affinity.

T1: 6×His-FAK KFL_(776–841) (human, UniProt Q05397 776-841, fluorescent label from the NanoTemper His-tag labelling kit (MST, fluorescence anisotropy))
T1 chain: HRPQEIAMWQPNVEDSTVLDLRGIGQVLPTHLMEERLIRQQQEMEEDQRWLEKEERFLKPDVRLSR

T2: FAK KFL 776-841 (Homo sapiens, UniProt Q05397)
T2 chain: T1 chain

B1: MBP–FAK KFL_(776–841) (domain or fragment, human, UniProt Q05397 776-841, looked up)
chain: T1 chain
notes: not shown: MBP, N-terminal, kept
B2: FAK KFL 776-841 (protein)
chain: T1 chain
modifications: not fully specified
B3: 6×His-FAK KFL_(776–841) (domain or fragment, human, UniProt Q05397 776-841, looked up)
chain: {6×His}-HRPQEIAMWQPNVEDSTVLDLRGIGQVLPTHLMEERLIRQQQEMEEDQRWLEKEERFLKPDVRLSR
modifications: also: fluorescent label on His-tag
notes: source: E. coli, purified (nickel column, Superdex 75 SEC); not shown: His6, N-terminal, kept

For data set [1], the target named is 6×His–PYK2 KFL_(728–839) (human) (UniProt Q14289). The data set can be described thus: ITC; 25 °C; 20 mM HEPES pH 7.5, 150 mM NaCl, 2 mM DTT, 5 mM Ca2+; CaM (300 µM) injected into KFL constructs in the cell (30 or 50 µM), or FERM domains (500 µM) injected into CaM (50 µM). For orientation: Isothermal titration calorimetry measures the heat released or taken up as one component is titrated into another.

Data set [2] shares this target. The data set can be described thus: ITC; 25 °C; 20 mM HEPES pH 7.5, 150 mM NaCl, 2 mM DTT, 1 mM EGTA; CaM (300 µM) injected into PYK2 KFL728–839 (30 µM).
Data set [3] deals with B3. The data set can be described thus: fluorescence polarisation; fluorescence anisotropy; labelled 6×His protein at 50 nM, unlabelled MBP-fused protein serially diluted; 20 mM HEPES, 200 mM NaCl, 1 mM DTT, pH 6.5. The conditions noted are these: both partners purified.
The target of data set [4] is T1, 6×His-FAK KFL_(776–841). The data set can be described thus: FP.
The next data set addresses T2, FAK KFL 776-841. The data set can be described thus: MST (self-association).
Data set [5] deals with the molecule itself. The data set can be described thus: MST; labelled 6×His protein at 50 nM, unlabelled protein serially diluted; 20 mM HEPES, 200 mM NaCl, 1 mM DTT, pH 6.5; dimer to monomers.
Data set [6] concerns the molecule itself. The data set can be described thus: SEC-MALS; Superdex 200; 20 mM HEPES, 200 mM NaCl, 2 mM DTT, pH 6.5 and 7.5; DAWN MALS detector. (In general: Size exclusion chromatography separates by hydrodynamic size, large species first.)

On to “6×His–CaM (recombinant calmodulin) (from UniProt P0DP23 1-149) (natural protein)”, for which the stoichiometry N in data set [1] and in data set [2] was 1 each time.
Regarding B1, in the data set with 6×His-FAK KFL_(776–841) [3], the binding result is recorded as “binds”. Further, in the data set with 6×His-FAK KFL_(776–841) [4], the Kd was found to be 730 nM.
In the case of B2, in the data set with FAK KFL 776-841, the Kd came to 848 nM.
As to B3, the Kd in data set [5] was roughly 800 nM. Besides, the “stoichiometry N” value in data set [6] turned out to be 2.
